Read-outs that look alike come from different tables or passages of the source. Values belong to the molecule of their own block, whether it stands above or below them.
Assays:
[1] = target: TROP-2 ectodomain expressed in HEK-293T cells (TROP-2-ECD-293T) (human) (UniProt P09758); assay: crystal structure
[2] = target: TROP-2 ectodomain expressed in HEK-293T cells (TROP-2-ECD-293T) (human) (UniProt P09758); assay: crystal structure; remark: listed apart in the source
[3] = target: TROP-2 ectodomain expressed in insect cells (TROP-2-ECD-insect) (human) (UniProt P09758); assay: ITC
[4] = target: TROP-2 ectodomain expressed in insect cells (TROP-2-ECD-insect) (human) (UniProt P09758); assay: crystal structure
[5] = target: TROP-2 ectodomain expressed in insect cells (TROP-2-ECD-insect) (human) (UniProt P09758); assay: crystal structure; remark: listed apart in the source
[6] = BS3 cross-linking, SDS-PAGE; conditions: glycan changed form; control: TROP-2-ECD from HEK-293T cells

stoichiometry N [1]: 4
stoichiometry N [2]: 2
Molecule: TROP-2 ectodomain expressed in HEK-293T cells (TROP-2-ECD-293T) (from UniProt P09758 27-274) (domain or fragment)

Kd [3]: 402 µM
dH [3]: 9.14 kcal/mol
stoichiometry N [4]: 4
stoichiometry N [5]: 2
Molecule: TROP-2 ectodomain expressed in insect cells (TROP-2-ECD-insect) (from UniProt P09758 27-274) (domain or fragment)

B1: TROP-2 (trophoblast cell surface antigen 2) ectodomain, TROP-2-ECD: expression in insect cells (protein)
parent chain: MARGPGLAPPPLRLPLLLLVLAAVTGHTAAQDNCTCPTNKMTVCSPDGPGGRCQCRALGSGMAVDCSTLTSKCLLLKARMSAPKNARTLVRPSEHALVDNDGLYDPDCDPEGRFKARQCNQTSVCWCVNSVGVRRTDKGDLSLRCDELVRTHHILIDLRHRPTAGAFNHSDLDAELRRLFRERYRLHPKFVAAVHYEQPTIQIELRQNTSQKAAGDVDIGDAAYYFERDIKGESLFQGRGGLDLRVRGEPLQVERTLIYYLDEIPPKFSMKRLTAGLIAVIVVVVVALVAGMAVLVITNRRKSGKYKKVEIKELGELRKEPSL
oligomerisation [6]: no change
